# Data taken from patent US20190092852A1 (Genentech, published 2019).
# Changes are numbered by the printed parent chain. Where “and” joins values, the source holds several entries; their conditions need not be identical. Identical values can stand only once.
# T1: human IL-33 (Genentech, huIL33.his) (human, UniProt O95760 112-270)
# T1 sequence (looked up): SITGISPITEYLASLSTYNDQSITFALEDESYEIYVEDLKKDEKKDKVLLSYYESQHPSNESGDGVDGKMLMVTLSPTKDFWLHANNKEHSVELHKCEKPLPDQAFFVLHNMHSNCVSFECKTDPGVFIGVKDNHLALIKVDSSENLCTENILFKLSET
# T2: human IL-33 (cell-based blocking assay of Example 2) (human, UniProt O95760 112-270)
# T2 sequence (looked up): T1 sequence (looked up)
# T3: cyno IL-33 (cell-based blocking assay of Example 2) (cynomolgus monkey, UniProt A0A2K5W3I1 95-269)
# T3 sequence: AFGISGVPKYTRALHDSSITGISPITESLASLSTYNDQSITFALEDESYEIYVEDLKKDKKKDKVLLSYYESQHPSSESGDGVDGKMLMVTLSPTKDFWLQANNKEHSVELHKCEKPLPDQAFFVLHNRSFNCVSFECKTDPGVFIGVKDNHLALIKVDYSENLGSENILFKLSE
# T4: cyno IL-33 N-His (cynomolgus monkey)
# T4 chain: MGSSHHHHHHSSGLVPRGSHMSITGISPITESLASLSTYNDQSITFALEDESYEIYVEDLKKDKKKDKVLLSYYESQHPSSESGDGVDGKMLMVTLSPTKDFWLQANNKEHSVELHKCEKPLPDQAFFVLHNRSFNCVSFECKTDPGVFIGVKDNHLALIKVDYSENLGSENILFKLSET
# T5: biotinylated cyno IL-33 (cynomolgus monkey, UniProt A0A2K5W3I1 112-269, biotin-labeled with EZ-LINK NHS-PEG4-Biotin)
# T5 construct: also called biotin-cyIL-33
# T5 sequence: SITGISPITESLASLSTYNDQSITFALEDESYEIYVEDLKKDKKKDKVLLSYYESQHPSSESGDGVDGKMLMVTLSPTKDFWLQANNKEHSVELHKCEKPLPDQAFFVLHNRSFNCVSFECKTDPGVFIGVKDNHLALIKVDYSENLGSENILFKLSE
# B1: 10H2.36.F10.30V.54D (antibody, V domains shown)
# VH: EVQLVESGGGLVQPGGSLRLSCAASGFTFSNYWMNWVRQAPGKGLEWMAEITLKFNDYSTHYAESVKGRFTISRDNSKNTVYLQMNSLRAEDTAVYYCARRNYGNWYINVWGQGTLVTVSS
# VL: DIVMTQSPDSLAVSLGERATINCRASESVDKFGVSFLNWYQQKPGQPPKLLIFVASSQGSGVPDRFSGSGSGTDFTLTISSLQAEDVAVYYCQQSKDIPYTFGQGTKVEIK
# notes: Humanized variant of 10H2
# B2: 9F6.34.E10 (antibody, V domains shown)
# VH: EVQLVQSGAEVKKPGASVKVSCKASGYTFTSYWINWVRQAPGQGLEWIGRIAPGSGFISYNELFKDRVTITRDTSTSTAYLELSSLRSEDTAVYYCAREFYYGSFYGGFAYWGQGTLVTVSS
# VL: DIQMTQSPSSLSASVGDRVTITCHASQNIHVWLSWYQQKPGKAPKLLIYKASTLHTGVPSRFSGSGSGTDFTLTISSLQPEDFATYYCQQGQSSPLTFGQGTKVEIK
# notes: Humanized variant of 9F6
# B3: 2B6.54S (antibody, V domains shown)
# VH: EVQLVQSGAEVKKPGASVKVSCKASGYTFSDYNMNWVRQAPGQGLESIGDINPKSGDTFYNQNFKDRATLTIDKSTSTAYLELSSLRSEDTAVYYCARHYYYGSSYGGFVYWGQGTLVTVSS
# VL: B2 VL with H30N, A43N, K50A, T53K, S94Y
# notes: Humanized variant of 2B6
# B4: 2B6.55A (NA) (antibody, V domains shown)
# VH: B3 VH with S55N, G56A
# VL: B2 VL with H30N, A43N, K50A, T53K, S94Y
# notes: Humanized variant of 2B6
# B5: H4H9672P (antibody, V domains shown)
# VH: EVQLVESGGGLVQPGGSLRLSCAASGFTLRSYVMYWVRQGPGKGLEGVSGISGSSGGTYYTDSVKGRFTISRDNSKNTLFLQMNSLRAEDTAVYFCARSVYSTTWYGGFQHWGQGTLVTVSS
# VL: DIQMTQSPSSVSVSVGDRVTITCRASQVISSWLAWYQLKPGKAPKLLIYAASSLQSGVPSRFSGSGSGTDFTLTISGLQPEDFAVYYCQQTNSFPLTFGGGTKVEIK
# B6: H4H9664P (antibody, V domains shown)
# VH: QVQLVESGGGVVQPGRSLRLSCAASGFTFSSYGLHWVRQSPGKGLEWVALISYDGSNKYYADSVKGRFTISRDNSKNTLYLQMNSLRPEDTAGYFCAKSLYTTSWYGGFDYWGQGTLVTVSS
# VL: DIQMTQSPSSVSASVGDRVTITCRASQGIRSWLAWYQQKPGKAPNLLIYAASSLQSGVPSRFSGSGSGTDFTLTISSLQPEDFATYYCQQANSFPPTFGPGTKVDIK
# B7: H4H9666P (antibody, V domains shown)
# VH: QVQLVQSGAEVKKPGASVKVSCKASGYTFTSYGISWVRQAPGQGLEWMGWIRAYNGYTNYAQKFQGRVTMTTDTSTNTAYMELRTLNSDDTAVYYCARDRYSGSFHGNFDYWGQGTLVTVSS
# VL: B6 VL with R30F, N45K, L46V, S53N, Q55E, F94L, P96L, P100G, D105E
# B8: H4H9667P (antibody, V domains shown)
# VH: EVQLVESGGGLVQPGGSLRLSCAASGFTFSTYSMHWVRQAPGKGLEYVSTINNNGDTTYYADSVKGRFTISRDNSKNTLYLQLGSLRPEDMAVYYCARQTYTSSWYGGFDSWGQGTLVTVSS
# VL: B6 VL with R30T, N45K, S53N, S76T, F94L, P96F
# B9: H4H9676P (antibody, V domains shown)
# VH: EVQLVESGGGLVQPGGSLRLSCSASGFTFSSYAMNWVRQAPGKGLEWVTAISGSGGGTYYADSVKGRFTISRDNSKNSLFLQLNSLRAEDTAVYYCAKQTYTSSWYGGFDIWGQGTMVTVSS
# VL: B6 VL with I29F, R30S, K39I, N45K, S53R, S63R, P96L, P100G, D105E
# B10: H4H9670P (antibody, V domains shown)
# VH: EVQLVESGGGLVQPGGSLRLSCAASGFTLSSYAMSWVRQAPGKGLEWVSAISGSGGSTYYADSVKGRFTISRDNSKNSLYLQLNSLRAEDTAVYYCAKTLYTTSWYGGFQHWGQGTLVTVSS
# VL: DIQMTQSPSSVSASIGDRVTITCRASQGISSWLAWYQQKPGKVPKLLIYAASSLQSGFPSRFSGSGSGTDFTLTISSLQPEDFATYYCQQTHSFPWTVGQGTKVEIK
# Molecular target: T1, human IL-33 (Genentech, huIL33.his)
# Experiment: SPR Biacore
row,Binder,Kd
1,B1,0.22 nM
2,B2,0.795 nM
3,B3,336 nM
4,B4,0.363 nM

# Molecular target: T2, human IL-33 (cell-based blocking assay …)
# Experiment: cell-based or functional assay
row,Binder,Cell assay (hu) IC90
1,B1,0.344 µg/mL and 2.27 nM
2,B2,0.0128 µg/mL and 0.84 nM

# Molecular target: T3, cyno IL-33 (cell-based blocking assay …)
# Experiment: cell-based or functional assay
row,Binder,Cell assay (cy) IC90
1,B1,> 1.5 µg/mL and > 9.9 nM
2,B2,> 1.5 µg/mL and > 9.9 nM

# Molecular target: T4, cyno IL-33 N-His
# Experiment: SPR Biacore T200, 25 C
# Method: (§1) The binding kinetics of the anti-IL-33 antibody 10C12.38.H6.87Y.58I IgG4 and each anti-IL-33 antibody listed in Table 5 (RG1-RG20) to IL-33 were measured using surface plasmon resonance (SPR) on a BIACORE® T200 instrument (GE Healthcare). Anti-human Fc or anti-murine Fc (GE Healthcare, #BR-1008-39 or BR-1008-38, respectively) was immobilized on a CM5 sensor chip via amine-based coupling according to the manufacturer's protocol. Surfaces were used to capture monoclonal human IgG4 and monoclonal murine IgGs for kinetic studies. Antibody binding was measured to human IL-33 (R&D systems, #3625-IL-010/CF) and cyno IL-33 N-His (SEQ ID NO: 317) (Genentech, Inc.). A three-fold concentration series of cytokine with a range of 3.7 to 100 nM was used for the experiments. Sensograms for binding of IL-33 were recorded using an injection time of 4 min with a flow rate of 30 μl/minute with a running buffer of 0.01 M N-(2-Acetamido)iminodiacetic acid (ADA) pH 7.4, 0.15 M NaCl, 3 mM EDTA, and 0.05% TWEEN®-20. After injection, disassociation of the ligand from the antibody was monitored for 10 min in running buffer. The surface was regenerated in between cycles with an injection of 3 M magnesium chloride or Glycine-HCl pH 1.7. All binding experiments were performed at a temperature of 25′C and 37° C. After subtraction of a blank which contained running buffer only, sensograms observed for IL-33 binding to anti-IL-33 antibodies were analyzed using a 1:1 Langmuir binding model with software supplied by the manufacturer to calculate the kinetics and binding constants, including the dissociation constant (KD). Dissociative half-lives (t_{1/2}) were calculated from the kinetic rate constants. KD (M)=koff/kₒₙ and t_{1/2} (min)=ln(2)/(60*koff). […] In Tables 6-9, *IC indicates the result is inconclusive due to weak capture of antibody was observed, leading to poor binding data.
Binder,Kd,koff,kon,t1/2
B5,5.74 nM,0.0019 s⁻¹,331000 M⁻¹ s⁻¹,6 min
B6,5.62 nM,0.000556 s⁻¹,99000 M⁻¹ s⁻¹,21 min
B7,38 nM,0.00625 s⁻¹,164000 M⁻¹ s⁻¹,2 min
B8,2.83 nM,0.00059 s⁻¹,208000 M⁻¹ s⁻¹,20 min
B9,3.15 nM,0.00248 s⁻¹,787000 M⁻¹ s⁻¹,5 min
B10,2.63 nM,0.000557 s⁻¹,212000 M⁻¹ s⁻¹,21 min

# Molecular target: T4, cyno IL-33 N-His
# Experiment: SPR Biacore T200, 37 C
# Method: as §1
Binder,Kd,koff,kon,t1/2
B5,13 nM,0.00757 s⁻¹,584000 M⁻¹ s⁻¹,2 min
B6,10.4 nM,0.00213 s⁻¹,205000 M⁻¹ s⁻¹,5 min
B7,47.4 nM,0.0139 s⁻¹,293000 M⁻¹ s⁻¹,1 min
B8,5.38 nM,0.00214 s⁻¹,398000 M⁻¹ s⁻¹,5 min
B9,6.93 nM,0.0111 s⁻¹,1.6e+06 M⁻¹ s⁻¹,1 min
B10,5.82 nM,0.00221 s⁻¹,380000 M⁻¹ s⁻¹,5 min

# Molecular target: T5, biotinylated cyno IL-33
# Experiment: competitive ELISA, biotin-cyIL-33 to coated hST2-Fc
# Method: The ability of the anti-IL-33 antibody 10C12.38.H6.87Y.58I IgG4 and each anti-IL-33 antibody listed in Table 5 (RG1-RG20) to block either human IL-33 or cyno IL-33 binding to human ST2 receptor was tested in a competitive binding ELISA. Briefly, 1 μg/ml of recombinant human ST2-Fc chimera protein prepared in coating buffer (50 mM sodium carbonate, pH 9.6) was coated on a 384-well MAXISORP® plate (Nalgene Nunc International; Rochester, N.Y.) and incubated overnight at 4° C. On the next day, non-specific binding was blocked with PBS containing 0.5% (w/v) solution of bovine serum albumin (BSA). Fixed concentrations of biotinylated human or cyno IL-33 prepared in assay buffer (25 mM PBS, pH 7.2, 0.1% BSA, 0.05% TWEEN®-20) were mixed with an equal volume of serially-diluted anti-IL-33 antibodies or assay buffer alone and incubated for 1 h at room temperature. The final assay concentrations of biotinylated human IL-33 or cyno IL-33 were 20 pM and 45 pM, respectively, and the final assay concentration of each antibody ranged from 0-300 nM. The pre-mixed solutions were added to the ST2-Fc coated plate and incubated for 1 h at room temperature. The binding of biotinylated IL-33 to coated ST2-Fc was detected by the sequential addition of Streptavidin Poly-HRP80 (Fitzgerald; Buckinghamshire, UK) and 3,3′,5,5′-tetramethyl benzidine (TMB) Microwell Peroxidase Substrate System (KPL; Gaithersburg, Md.). The absorbance (450 nm) was recorded using a […] ASCENT® plate reader (Thermo Scientific; Rockford, Ill.). The binding activity (%) of biotin-IL-33 to ST2 in the presence of anti-IL-33 was plotted as a function of antibody concentration. The data generated were fitted to a four-parameter equation to determine IC₅₀ values for each antibody (FIGS. 25A and 25B) using Prism software (Graphpad Software; La Jolla, Calif.). The maximum blocking (%) of each antibody was calculated as the ratio of the reduction in signal measured in the presence of antibody relative to the difference between the signal with IL-33 alone and background measurements.
Binder,Maximum Blocking,IC50
B6,10%,
B8,7%,
B10,27%,150 nM
